Source: article doi:10.1101/807917

Molecular target: E. coli 30S initiation complex (30S IC) lacking IF2 and IF3 (E. coli) (UniProt P69222)
Test: FRET or BRET

Chain of UniProt P69222 (P69222 whole entry, looked up, one chain of several): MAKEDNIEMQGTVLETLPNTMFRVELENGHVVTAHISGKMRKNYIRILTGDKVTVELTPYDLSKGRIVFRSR

Cy5-labeled Initiation Factor 2 (IF2), E. coli (from UniProt P0A705 1-890) (natural protein)
fold change of Kd, IF2 bound to ppGpp relative to IF2 bound to GTP: 10 fold
